Results reported in PMC7022617.

Legend:
[1] = system: hemagglutinin H3 on virus particles (Influenza A virus A/England/42/1972 (H3N2)); assay: ELAA
[2] = system: hemagglutinin H5 on virus particles (Influenza A virus A/chicken/Kurgan/3654at/2005 (H5N1)); assay: ELAA
[3] = system: hemagglutinin H7 on virus particles (Influenza A virus A/mallard/Sweden/91/2002 (H7N9)); assay: ELAA
[4] = system: hemagglutinin H9 on virus particles (Influenza A virus A/duck/Primorie/3628/2002 (H9N2)); assay: ELAA
[5] = system: hemagglutinin HA1 subunit H1 (recombinant, Abcam ab69741) (Influenza A virus H1 (strain not given)); assay: SPR
[6] = system: hemagglutinin HA1 subunit H3 (recombinant, Abcam ab69749) (Influenza A virus H3 (strain not given)); assay: SPR
[7] = system: hemagglutinin HA1 subunit H9 (recombinant, Abcam ab67740) (Influenza A virus H9 (strain not given)); assay: SPR

Row | Sequence | Kd [1] | Kd [2] | Kd [3] | Kd [4] | Kd [5] | Kd [6] | Kd [7]
1 | TTGGGGTAAGAAGGGAGGGCGGGGGTT [5'-biotin G7-TAAGAA] | 17 nM | 9 nM | 13 nM | 7 nM | – | – | –
2 | TTGGGGTAAGAAGGGAGGGCGGGGGTT [G7-TAAGAA] | – | – | – | – | 60 nM | 60 nM | 60 nM
3 | TTGGGGTTAGGGAGGGCGGGGGTT [5'-biotin G7-TTA] | 7 nM | 13 nM | 6 nM | 10 nM | – | – | –
4 | TTGGGGTTAGGGAGGGCGGGGGTT [G7-TTA] | – | – | – | – | 30 nM | 16 nM | 28 nM
5 | TTGGGGTTATTAAGGGAGGGCGGGGGTT [5'-biotin G7-TTATTAA] | 8 nM | 5 nM | 13 nM | 8 nM | – | – | –
6 | TTGGGGTTATTAAGGGAGGGCGGGGGTT [G7-TTATTAA] | – | – | – | – | 90 nM | 50 nM | 28 nM
7 | TTGGGGTTATTTTGGGAGGGCGGGGGTT [5'-biotin RHA0385] | 2 nM | 4 nM | 8 nM | 5 nM | – | – | –
8 | TTGGGGTTATTTTGGGAGGGCGGGGGTT [RHA0385] | – | – | – | – | 7 nM | 12 nM | 14 nM
